Target: SARS-CoV-2 Omicron BA.1 spike protein (SARS-CoV-2 (Omicron BA.1)) (UniProt P0DTC2)
Assay: cryo-EM structure; Tr67 and Omicron BA.1 spike mixed in a 1.5:1 weight ratio, 0.3 mg/ml; single-particle analysis, C3 symmetry, map at ~9 Å

SARS-CoV-2 Omicron BA.1 spike protein (from UniProt P0DTC2 14-1273) (natural protein)
stoichiometry N: 3

Reference: article PMC10858482
